From the RNAGym collection of RNA variant scans (doi:10.7554/elife.80360)

B1: HDV Ribozyme (parent)
chain: GGCCGGCAUGGUCCCAGCCUCCUCGCUGGCGCCGGCUGGGCAACAUUCCGAGGGGACCGUCCCCUCGGUAAUGGCGAAUGGGACCCA

Variants of: B1
Test: self-cleavage, relative activity (ratio to wild type); higher = more cleavage; co-transcriptional

Variant | self-cleavage
C33G G80C | 0
C33G G74U | 0.173
C33G | 0.173
C33A | 0.29
C33A G80U | 0.136
C33A G80C | 0.16
C32G U65G | 0.119
C33A G82C | 0.17
C32U A83U | 0.456
C32G G68U | 0.089
C32G G68A | 0.185
C32U G39A | 0.192
C33A G53U | 0.277
C33A G53A | 0.264
C32U U65G | 0.956
C32U U65C | 0.91
C32U U65A | 1.08
C33A G73U | 0.233
C33A G73A | 0.147
C32U G35A | 0.326
C32G A45C | 0.0707
C32G C86A | 0.18
C32G C86G | 0.119
C32U C44A | 0.243

Variant | self-cleavage
C33A G52U | 0.161
C33A G52C | 0.284
C33A G52A | 0.229
C32G C44A | 0.0791
C32G C44U | 0.0665
C32U G68A | 0.888
C32U G68U | 0.776
C33G U65A | 0.156
C33A U79C | 0.0893
C32G G82U | 0.228
C32G G82A | 0.0997
C33A G74A | 0.0219
C32A U69A | 0.0652
C32A U69G | 0.271
C32A U65A | 0.309
C32A U65C | 0
C32G G73C | 0.12
C33A U72A | 0.208
C33A U60A | 0.193
C33A C49U | 0.212
C33A C49A | 0.364
C32U C63A | 0.701
C32U C63U | 0.817
C32G U60A | 0.131

Variant | self-cleavage
C32U U46C | 0.554
C32U U46G | 0.646
C32G A77G | 0.0475
C32G A77U | 0.123
C32G A77C | 0.0536
C32U A43C | 0.196
C32U C61A | 0.841
C32U C61U | 0.817
C32U G81A | 0.158
C32U G81U | 0.185
C33A A71U | 0.0282
C33A A71G | 0.289
C32U A51C | 0.541
C32U A51G | 0.92
C33A G39U | 0.138
C33A G39C | 0.0678
C33A C84A | 0.0811
C33A C84U | 0.193
C32G C36U | 0.111
C33G G34C | 0
C33G G34U | 0.0997
C33A U47G | 0.378
C32G C58A | 0.189
C33G A70U | 0.383

Variant | self-cleavage
C33G G67A | 0.089
C33G G67C | 0.0978
C33G C44G | 0.101
C32G C64U | 0.109
C33G G38C | 0
C33G C49U | 0.0923
C33G C49G | 0.0978
C33G A71G | 0.178
C33G A71C | 0.104
C33G G40A | 0.243
C33G G40U | 0.233
C32U C66G | 0.739
C32U C66A | 0.991
C32U A78U | 0.178
C32U A78C | 0.177
C32U G38A | 0.216
C33A A77G | 0.104
C33A A77U | 0.0923
C33A A77C | 0.0707
C33A G50C | 0.203
C33A G50A | 0.215
C33A G50U | 0.295
C33A C36G | 0.208
C33A C36U | 0.0396

Variant | self-cleavage
C33A G40A | 0.214
C33G C66U | 0.181
C32U G82C | 0.253
C32U G82A | 0.354
C33G A42U | 0.0678
C32G A71G | 0.0415
C32G A71C | 0
C32G U47C | 0.0852
C33A G38A | 0.0386
C33A G38U | 0.153
C32U G80C | 0.132
C32U G80A | 0.256
C33G C63G | 0.369
C33G C63A | 0.0475
C33G C63U | 0.173
C32U G40U | 0.758
C33A C48A | 0.314
C33G A45G | 0.447
C33G C41A | 0.185
C32U G73C | 0.261
C32U G73U | 0.267
C32U G74A | 0.459
C32G C61U | 0.026
C32G C61G | 0.0604

Variant | self-cleavage
C32G C61A | 0.121
C33A A56U | 0.475
C33A A56C | 0.339
C33A A56G | 0.324
C33G G73A | 0.0308
C33G G73C | 0.253
C33G G73U | 0.138
C33G A87U | 0.151
C33G A87C | 0.0839
C33G A87G | 0.116
C33A G54C | 0.222
C33A G54U | 0.198
C33G C48U | 0.13
C33G C62G | 0.196
C32U C41U | 0.629
C32U C41G | 0.429
C33G C84U | 0.0386
C33G C84G | 0.0489
C33A G34A | 0.166
C33A C63G | 0.283
C33A C63U | 0.503
C32G U79C | 0.0205
C33G U60G | 0.217
C33A A78G | 0.161

Variant | self-cleavage
C32A U60G | 0.138
C33G C57G | 0.214
C33G C57A | 0.147
C33G C57U | 0.166
C32G U69G | 0.0504
C32G U69C | 0.0639
C32G U69A | 0.148
C32U C58A | 1
C32G U37A | 0.293
C33G U37A | 0.225
C33G U37C | 0.122
C32G C33A | 0.0615
C32G C33G | 0.0906
C33G G81C | 0.151
C33G G81A | 0.128
C32G U72G | 0.0519
C33A G59C | 0.521
C33A G59U | 0.338
C32U A77G | 0.73
C32G C49A | 0
C33G C58G | 0.185
C32U A70G | 0.85
C32U A70C | 0.68
C32U A70U | 0.892

Variant | self-cleavage
C32G A70G | 0.0554
C32G A70U | 0.032
C32U G50C | 0.764
C33G U47A | 0.227
C33G U47C | 0.317
C32U C36G | 0.0923
C32G G76U | 0.122
C32G G76C | 0.224
C32U C64U | 0.831
C32U C49U | 0.803
C32U U37A | 0.252
C32U A45G | 0.755
C32U A45U | 0.631
C32U A45C | 0.291
C33A A42G | 0
C32U C33A | 0.161
C32U C33U | 0.166
C32U C33G | 0.117
C33G A83G | 0.0963
C33G A83U | 0.162
C33G G76A | 0.185
C33G G76C | 0.229
C33G C61A | 0.193
C33G C61G | 0.19

Variant | self-cleavage
C33G C61U | 0.212
C32U G53C | 0.846
C32U G53U | 0.811
C32G U46A | 0.0332
C32U C75U | 0.315
C32U G54U | 0.923
C32U G54C | 0.992
C33G G55A | 0.218
C33G G55C | 0.158
C33G A78U | 0.0875
C33A G76U | 0.326
C33A G76C | 0.251
C33A G76A | 0.228
C33A U65G | 0.244
C33A U65C | 0.158
C32G A87U | 0.135
C32G A87G | 0.0665
C32G A87C | 0.0545
C32U U79C | 0.201
C32A U72C | 0.133
C32A U72G | 0.178
C32A U72A | 0.156
C32G A42C | 0.0678
C33A G67A | 0.273

Variant | self-cleavage
C33G U46G | 0.208
C33G U46C | 0.185
C33A U69G | 0.287
C33A U69C | 0.342
C32G G81C | 0.0773
C32G G81A | 0.0297
C33A C57U | 0.46
C33A G68C | 0.0449
C32G A56C | 0.0739
C32G A56G | 0.0852
C32U U60C | 0.7
C32U C85A | 0.849
C32U C85G | 0.831
C32G G59A | 0.0489
C32G G59U | 0.0519
C33G G82C | 0.0405
C33A C75G | 0.145
C32A U47G | 0.246
C32G C63A | 0
C33A G55U | 0.349
C32G A51U | 0.128
C33G G35U | 0.142
C33G G35C | 0.0396
C33G C64A | 0.213

Variant | self-cleavage
C33G G54U | 0.0426
C32U G55U | 0.935
C32U G55C | 0.866
C32U C86U | 0.686
C33A A83G | 0.144
C32U U69A | 1.13
C33A U46C | 0.0875
C33A U46A | 0.128
C33G A56U | 0.228
C33G A56C | 0.113
C33G A56G | 0.222
C32G C84G | 0.0594
C33G C85U | 0.122
C33G C85A | 0.175
C32G G55A | 0.0841
C32G G55U | 0.0911
C32G G55C | 0.136
C33G G39U | 0.0692
C33G G39C | 0.0386
C33A C61U | 0.265
C33A C61G | 0.237
C33G C36A | 0.107
C33G C36G | 0.128
C33A C85G | 0.309

Variant | self-cleavage
C33A C85U | 0.277
C33G G52A | 0.148
C32U A71C | 0.665
C32U A56C | 1.12
C32G A78C | 0.0665
C32G A78G | 0.0536
C32G A78U | 0.0811
C33G G50U | 0.131
C32G A83G | 0
C32G A83C | 0.0346
C33G C75A | 0.0791
C33G C75G | 0.0426
C33G C75U | 0.151
C32G G53C | 0.213
C32G G53U | 0.196
C33A G35C | 0.133
C32G C48U | 0.0449
C32G C66G | 0.0583
C32G C66A | 0.113
C32U G59A | 0.963
C32U G59U | 0.795
C33G G68A | 0.177
C32U A42C | 0.233
C32G G74A | 0.126

Variant | self-cleavage
C32G G74U | 0.125
C32G G74C | 0.166
C32G G54A | 0.0898
C32G G54C | 0.086
C32U C62A | 0.906
C32U C62U | 1.13
C33G G53U | 0.185
C33G G53A | 0.0449
C32G G35A | 0.154
C33G A51G | 0.111
C32U A87U | 1.03
C32U A87G | 0.787
C33G G59A | 0.188
C33G G59U | 0.111
C33A C64A | 0.339
C33A C64G | 0.289
C33A C64U | 0.086
C32U C84G | 0.399
C32U C84U | 0.763
C32U G67U | 0.88
C32G C62U | 0.117
C32G C62A | 0.148
C32G C62G | 0.277
C33A A45C | 0.133

Variant | self-cleavage
C33A A45U | 0.232
C33A C86A | 0.277
C32G G38C | 0.0462
C32G C41U | 0.119
C32G G50A | 0.157
C32G G50C | 0.262
C32U C48U | 0.69
C33A A43U | 0.163
C32G G39A | 0.157
C32U U72G | 0.494
C32U U72A | 0.692
C33G A77U | 0.106
C33A C44U | 0.0707
C33G C86G | 0.151
C33G C86A | 0.146
C33A A51G | 0.289
C32G G67A | 0.16
C32G G67U | 0.0831
C32G G40A | 0.0831
C32G G40C | 0.0755
C32G G80U | 0.0831
C32G C57G | 0.225
